This is an account of results in PMC5085265.

The target in assay [1] is ^C38/C81/C96M1 (variant lacking the hydrophobic mutations) (UniProt P0ABE7).
Assay [2] has as its target ^C38/C81/C96R1 (triple Cys mutant of the cytochrome cb562 variant RIDC1). Kind of assay: AUC.
Assay [3] has the same target.

In the case of “^C38/C81/C96M1 (variant lacking the hydrophobic mutations) (from UniProt P0ABE7 23-128)”, the yield of the tetrameric species in assay [1] worked out at 16%.

As usually defined, the stoichiometry N is the number of molecules, sites or subunits per partner or assembly. Turning to “^C38/C81/C96R1 (triple Cys mutant of the cytochrome cb562 variant RIDC1)”, in assay [2], the stoichiometry N was 4. In addition, in assay [3], the yield of the tetrameric species was 47% and the yield of the tetrameric species with 1.5-fold molar excess of Zn2+ was found to be 53%.
